The values that follow come from article PMC4320154, “Treatment of Methicillin-resistant Staphylococcus aureus experimental Osteomyelitis with bone-targeted Vancomycin” (SpringerPlus, 2013).

The conditions of data set [1]: rat, in vivo, 63.85 mg/kg; cited from earlier work. As for the experimental part:
Chemical conjugation of vancomycin to a bone-targeting moiety would theoretically yield a compound targeting delivery of vancomycin to bone, a strategy that could be useful in the treatment of bone infection. Pradama Inc. has developed a bone-targeted vancomycin, BT2-peg2-vancomycin (Figure 1) (Pierce et al. [2011]). Previous studies show concentrations of BT2-peg2-vancomycin twelve hours after a single injection (63.85 mg/kg, equivalent to 50 mg/kg vancomycin) were 27.97 and 14.18 μg/ml for plasma and bone, respectively. Concentrations of BT2-peg2-vancomycin after seven doses given every 12 h ...

Data set [2] deals with Thirty clinical isolates of MRSA. Description: microbe, parasite or virus in culture. It counts as cell-based, Staphylococcus aureus. To be noted: Thirty clinical isolates of. The procedure: Thirty clinical isolates of MRSA were studied. […] The minimum bactericidal concentration (MBC) of vancomycin HCl and BT2-peg2-vancomycin diacetate were also determined according to CLSI guidelines (Clinical and Laboratory Standards Institute [1999]).

The nature of data set [3]: Plasma concentrations in infected animals by LC/MS. Format: in vivo, male Wistar rats. To be noted: male, Wistar, rat, in vivo, ip, 63.85 mg/kg. As for the experimental part: Four weeks after establishing infection, five rats were sacrificed, the left tibia aseptically removed and quantitative cultures performed. The remaining animals underwent surgical débridement of the infection site with sterile saline and were arbitrarily assigned to one of five study arms for a duration of 21 days: No treatment (n=17), vancomycin HCl every 12 hours (n=17, 42 doses), BT2-peg2-vancomycin diformate every 12 hours (n=17, 42 doses), BT2-peg2-vancomycin diformate every 12 hours for 3.5 days and then every fourth day thereafter (n=16, 11 doses), and BT2-peg2-vancomycin diformate once per week (n=15, 3 doses). Vancomycin HCl was administered at 50 mg/kg and BT2-peg2-vancomycin diformate at 63.85 mg/kg (equivalent to 50 mg/kg active vancomycin); both were administered intraperitoneally. Twelve hours after completion of therapy (day 50), blood was collected via cardiac puncture for hematology and chemistry studies [performed by Charles River (Wilmington, MA)], and drug concentration studies. Rats were sacrificed with CO2. The left (infected) tibia from one animal in each group was collected for histopathology with bones placed in 10% neutralized buffered formalin (NBF), decalcified, embedded in […], prepared as longitudinal cuts and stained with hematoxylin and eosin. The left (infected) tibias from the remaining animals were weighed, cryopulverized and processed for quantitative and qualitative bacterial culture. Culture results were expressed as log10 cfu/g of bone tissue.
Plasma concentrations of BT2-peg2-vancomycin in infected animals were measured by liquid chromatography/mass spectrometry (LC/MS). […] The elutes (50 μl) were diluted with 450 μl 5% ACN in 0.1% formic acid and analyzed by Accela LC System (Thermo Scientific, San Jose, CA) coupled with a LTQ-Orbitrap XL mass spectrometer (Thermo Scientific, San Jose, CA). […] Elutes from the LC column were ionized by electrospray ionization and BT2-peg2-vancomycin and teicoplanin were detected by multiple reaction monitoring. […]
Plasma concentrations of vancomycin were measured by LC/MS. […]

For `CN[C@H](CC(C)C)C(=O)N[C@H]1C(=O)N[C@@H](CC(N)=O)C(=O)N[C@H]2C(=O)N[C@H]3C(=O)N[C@H](C(=O)N[C@H](C(=O)NCCOCCOCC(=O)Nc4ccc(OC)c(C(N)=O)c4O)c4cc(O)cc(O)c4-c4cc3ccc4O)[C@H](O)c3ccc(c(Cl)c3)Oc3cc2cc(c3O[C@@H]2O[C@H](CO)[C@@H](O)[C@H](O)[C@H]2O[C@H]2C[C@](C)(N)[C@H](O)[C@H](C)O2)Oc2ccc(cc2Cl)[C@H]1O` [BT2-peg2-vancomycin], in data set [1], the bone concentration is 14.18 µg/mL and the plasma concentration was 27970 ng/mL. Moreover, in data set [2], the “MIC at which 50% of the isolates were inhibited (MIC50)” value was 1 µg/mL and the “MIC at which 90% of the isolates were inhibited (MIC90)” value came to 2 µg/mL. In data set [3], the level at 12 h turned out to be 130000 ng/mL and the level at 48 h came to 880 ng/mL.
